In patent US7501122 (Genentech, dated 2009):

Assays:
ErbB3 (HER3) = molecular target: T1, ErbB3 (HER3) (human, UniProt P21860 20-1342); experiment: not described
T1 construct: whole, on cells

ErbB4 (HER4) = molecular target: T2, ErbB4 (HER4) (UniProt Q15303 26-651, limits assumed); experiment: not described
T2 sequence (looked up): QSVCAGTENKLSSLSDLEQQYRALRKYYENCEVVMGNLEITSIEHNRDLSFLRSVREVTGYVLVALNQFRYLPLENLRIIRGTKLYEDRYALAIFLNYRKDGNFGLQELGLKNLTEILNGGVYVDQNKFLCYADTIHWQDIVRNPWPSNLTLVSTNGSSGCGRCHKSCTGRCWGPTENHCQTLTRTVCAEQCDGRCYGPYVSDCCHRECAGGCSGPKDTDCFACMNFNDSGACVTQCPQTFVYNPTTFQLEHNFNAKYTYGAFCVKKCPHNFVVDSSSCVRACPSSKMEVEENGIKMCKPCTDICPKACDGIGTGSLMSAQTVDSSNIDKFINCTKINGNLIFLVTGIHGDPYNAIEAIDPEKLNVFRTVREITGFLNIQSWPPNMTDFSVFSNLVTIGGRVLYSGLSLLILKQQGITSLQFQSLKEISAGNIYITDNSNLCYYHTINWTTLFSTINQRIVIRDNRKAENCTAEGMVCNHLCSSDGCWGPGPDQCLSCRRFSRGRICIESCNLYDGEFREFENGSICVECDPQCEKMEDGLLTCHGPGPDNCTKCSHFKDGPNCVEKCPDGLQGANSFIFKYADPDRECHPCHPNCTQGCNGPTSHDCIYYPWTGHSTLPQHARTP

T1 sequence (P21860 20-1342): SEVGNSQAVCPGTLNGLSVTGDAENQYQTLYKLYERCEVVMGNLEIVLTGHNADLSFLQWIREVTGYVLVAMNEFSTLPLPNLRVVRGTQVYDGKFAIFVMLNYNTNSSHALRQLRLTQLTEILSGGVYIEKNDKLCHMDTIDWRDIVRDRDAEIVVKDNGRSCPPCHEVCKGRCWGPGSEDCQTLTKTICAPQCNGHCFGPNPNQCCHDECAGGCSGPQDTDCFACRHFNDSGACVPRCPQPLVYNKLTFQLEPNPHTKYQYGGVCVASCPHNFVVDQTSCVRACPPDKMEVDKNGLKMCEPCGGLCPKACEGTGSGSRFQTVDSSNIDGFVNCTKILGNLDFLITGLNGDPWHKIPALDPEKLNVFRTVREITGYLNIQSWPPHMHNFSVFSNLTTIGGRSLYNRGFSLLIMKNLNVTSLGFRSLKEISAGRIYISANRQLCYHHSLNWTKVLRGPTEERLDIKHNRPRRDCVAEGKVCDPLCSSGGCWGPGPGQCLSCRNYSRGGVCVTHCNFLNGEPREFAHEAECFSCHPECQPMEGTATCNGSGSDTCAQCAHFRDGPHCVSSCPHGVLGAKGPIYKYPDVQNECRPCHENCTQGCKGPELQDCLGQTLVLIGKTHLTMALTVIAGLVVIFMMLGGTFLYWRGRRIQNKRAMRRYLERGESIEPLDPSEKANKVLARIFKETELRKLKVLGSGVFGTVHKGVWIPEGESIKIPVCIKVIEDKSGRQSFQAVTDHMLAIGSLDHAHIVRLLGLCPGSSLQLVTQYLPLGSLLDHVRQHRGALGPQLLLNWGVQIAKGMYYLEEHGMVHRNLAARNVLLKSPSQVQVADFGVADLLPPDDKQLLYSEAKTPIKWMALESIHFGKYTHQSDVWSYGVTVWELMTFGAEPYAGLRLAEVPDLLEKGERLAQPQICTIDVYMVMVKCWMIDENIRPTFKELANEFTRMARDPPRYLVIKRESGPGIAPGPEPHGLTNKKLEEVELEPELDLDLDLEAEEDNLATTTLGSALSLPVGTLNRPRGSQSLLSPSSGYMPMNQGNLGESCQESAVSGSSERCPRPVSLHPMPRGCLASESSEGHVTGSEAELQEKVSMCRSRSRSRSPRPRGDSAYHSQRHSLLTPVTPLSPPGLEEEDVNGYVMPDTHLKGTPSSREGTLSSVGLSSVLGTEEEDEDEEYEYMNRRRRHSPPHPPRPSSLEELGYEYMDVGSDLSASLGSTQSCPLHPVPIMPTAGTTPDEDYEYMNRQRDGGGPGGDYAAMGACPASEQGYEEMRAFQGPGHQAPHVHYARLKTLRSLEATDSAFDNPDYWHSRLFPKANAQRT

B1: murine monoclonal antibody 2C4 (antibody, V domains shown)
VH: EVQLQQSGPELVKPGTSVKISCKASGFTFTDYTMDWVKQSHGKSLEWIGDVNPNSGGSIYNQRFKGKASLTVDRSSRIVYMELRSLTFEDTAVYYCARNLGPSFYFDYWGQGTTLTVSS
VL: DTVMTQSHKIMSTSVGDRVSITCKASQDVSIGVAWYQQRPGQSPKLLIYSASYRYTGVPDRFTGSGSGTDFTFTISSVQAEDLAVYYCQQYYIYPYTFGGGTKLEIK
notes: also called mu 2C4; intact murine 2C4
Question: Does B1 bind (ErbB3 (HER3))?
Answer: Result: no binding

Question: Does B1 bind (ErbB4 (HER4))?
Answer: Result: no binding
